Laboratory results taken from patent US20140274782A1, “AFFINITY REAGENTS AND METHODS FOR DETECTION, PURIFICATION, AND PROTEOMIC ANALYSIS OF METHYLATED PROTEINS” (The Board of Trustees of the Leland Stanford Junior …, priority 2013, published 2014).

T1: G9a and GLP (Homo sapiens, UniProt Q96KQ7+Q9H9B1)
T1 sequence (Q96KQ7 2-1210 limits assumed): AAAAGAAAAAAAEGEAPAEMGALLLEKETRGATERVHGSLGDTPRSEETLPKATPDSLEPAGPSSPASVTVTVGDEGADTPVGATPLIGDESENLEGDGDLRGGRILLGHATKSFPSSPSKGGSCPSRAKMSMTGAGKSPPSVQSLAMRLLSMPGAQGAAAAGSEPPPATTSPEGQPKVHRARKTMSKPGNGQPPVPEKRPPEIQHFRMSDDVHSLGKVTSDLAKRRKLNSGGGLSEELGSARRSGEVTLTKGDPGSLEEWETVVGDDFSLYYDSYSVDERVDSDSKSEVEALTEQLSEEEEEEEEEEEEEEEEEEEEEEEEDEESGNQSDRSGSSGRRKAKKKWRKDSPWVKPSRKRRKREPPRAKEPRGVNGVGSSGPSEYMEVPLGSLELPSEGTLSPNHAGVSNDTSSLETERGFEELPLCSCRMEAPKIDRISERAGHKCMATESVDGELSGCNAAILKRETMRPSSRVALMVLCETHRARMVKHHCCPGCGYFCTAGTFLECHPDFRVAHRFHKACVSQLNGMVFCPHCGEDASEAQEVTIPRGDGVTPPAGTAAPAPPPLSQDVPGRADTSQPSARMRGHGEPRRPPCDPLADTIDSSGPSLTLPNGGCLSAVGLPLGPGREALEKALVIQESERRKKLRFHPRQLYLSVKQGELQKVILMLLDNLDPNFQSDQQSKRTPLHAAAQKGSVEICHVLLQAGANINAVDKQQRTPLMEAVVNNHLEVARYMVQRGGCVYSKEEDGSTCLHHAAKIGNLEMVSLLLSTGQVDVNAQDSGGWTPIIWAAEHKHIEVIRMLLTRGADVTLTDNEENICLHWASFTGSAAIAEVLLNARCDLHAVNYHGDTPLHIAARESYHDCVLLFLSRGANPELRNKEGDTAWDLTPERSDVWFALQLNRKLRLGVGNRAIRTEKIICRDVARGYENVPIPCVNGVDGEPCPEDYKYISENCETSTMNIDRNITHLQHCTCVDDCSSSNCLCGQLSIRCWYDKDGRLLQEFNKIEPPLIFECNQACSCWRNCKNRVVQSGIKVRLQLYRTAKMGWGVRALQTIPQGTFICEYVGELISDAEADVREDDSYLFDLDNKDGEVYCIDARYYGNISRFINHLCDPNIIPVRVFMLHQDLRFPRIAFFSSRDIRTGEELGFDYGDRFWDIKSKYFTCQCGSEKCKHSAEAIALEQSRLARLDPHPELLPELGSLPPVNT
T1 sequence (Q9H9B1 2-1298 limits assumed): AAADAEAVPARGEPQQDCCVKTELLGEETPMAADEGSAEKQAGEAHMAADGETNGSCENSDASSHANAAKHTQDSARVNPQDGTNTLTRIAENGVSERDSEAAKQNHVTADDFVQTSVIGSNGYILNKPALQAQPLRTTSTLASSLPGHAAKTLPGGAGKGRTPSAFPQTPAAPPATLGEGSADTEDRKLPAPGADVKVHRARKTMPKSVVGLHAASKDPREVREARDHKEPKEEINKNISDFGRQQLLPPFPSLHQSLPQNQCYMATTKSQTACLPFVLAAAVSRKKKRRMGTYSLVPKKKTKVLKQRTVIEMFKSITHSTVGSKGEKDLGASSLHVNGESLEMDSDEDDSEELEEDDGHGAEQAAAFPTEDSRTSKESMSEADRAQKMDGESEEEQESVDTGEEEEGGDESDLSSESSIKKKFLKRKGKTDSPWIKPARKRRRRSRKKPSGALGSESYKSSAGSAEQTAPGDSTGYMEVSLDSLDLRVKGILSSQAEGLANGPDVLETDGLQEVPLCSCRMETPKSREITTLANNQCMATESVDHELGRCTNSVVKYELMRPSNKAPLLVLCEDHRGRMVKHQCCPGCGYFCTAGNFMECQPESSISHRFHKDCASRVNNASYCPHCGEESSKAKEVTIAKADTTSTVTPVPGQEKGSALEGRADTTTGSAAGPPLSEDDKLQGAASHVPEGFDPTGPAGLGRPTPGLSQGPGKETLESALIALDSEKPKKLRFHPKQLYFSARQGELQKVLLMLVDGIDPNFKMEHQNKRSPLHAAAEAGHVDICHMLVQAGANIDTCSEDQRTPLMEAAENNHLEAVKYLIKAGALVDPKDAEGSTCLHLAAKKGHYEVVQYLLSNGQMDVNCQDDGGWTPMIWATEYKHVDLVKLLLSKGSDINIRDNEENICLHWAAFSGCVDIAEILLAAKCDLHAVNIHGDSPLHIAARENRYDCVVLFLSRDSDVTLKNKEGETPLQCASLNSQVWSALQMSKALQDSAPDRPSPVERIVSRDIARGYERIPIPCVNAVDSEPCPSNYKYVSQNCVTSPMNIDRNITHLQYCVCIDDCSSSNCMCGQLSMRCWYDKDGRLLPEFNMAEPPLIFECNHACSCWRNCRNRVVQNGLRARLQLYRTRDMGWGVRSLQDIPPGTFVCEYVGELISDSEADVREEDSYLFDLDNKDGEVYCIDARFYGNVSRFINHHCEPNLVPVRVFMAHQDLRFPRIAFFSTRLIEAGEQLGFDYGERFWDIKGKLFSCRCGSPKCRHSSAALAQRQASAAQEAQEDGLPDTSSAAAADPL

B1: CGGBP1 (protein, UniProt Q9UFW8 1-167, looked up)
CGG triplet repeat-binding …: MERFVVTAPPARNRSKTALYVTPLDRVTEFGGELHEDGGKLFCTSCNVVLNHVRKSAISDHLKSKTHTKRKAEFEEQNVRKKQRPLTASLQCNSTAQTEKVSVIQDFVKMCLEANIPLEKADHPAVRAFLSRHVKNGGSIPKSDQLRRAYLPDGYENENQLLNSQDC
B2: RPRD1A (protein, UniProt Q96P16 2-312, looked up)
Regulation of nuclear …: SAFSEAALEKKLSELSNSQQSVQTLSLWLIHHRKHSRPIVTVWERELRKAKPNRKLTFLYLANDVIQNSKRKGPEFTKDFAPVIVEAFKHVSSETDESCKKHLGRVLSIWEERSVYENDVLEQLKQALYGDKKPRKRTYEQIKVDENENCSSLGSPSEPPQTLDLVRALQDLENAASGDAAVHQRIASLPVEVQEVSLLDKITDKESGERLSKMVEDACMLLADYNGRLAAEIDDRKQLTRMLADFLRCQKEALAEKEHKLEEYKRKLARVSLVRKELRSRIQSLPDLSRLPNVTGSHMHLPFAGDIYSED
B3: SRRT (protein, UniProt Q9BXP5 2-876, looked up)
Serrate RNA effector molecule …: GDSDDEYDRRRRDKFRRERSDYDRSRERDERRRGDDWNDREWDRGRERRSRGEYRDYDRNRRERFSPPRHELSPPQKRMRRDWDEHSSDPYHSGYEMPYAGGGGGPTYGPPQPWGHPDVHIMQHHVLPIQARLGSIAEIDLGVPPPVMKTFKEFLLSLDDSVDETEAVKRYNDYKLDFRRQQMQDFFLAHKDEEWFRSKYHPDEVGKRRQEARGALQNRLRVFLSLMETGWFDNLLLDIDKADAIVKMLDAAVIKMEGGTENDLRILEQEEEEEQAGKPGEPSKKEEGRAGAGLGDGERKTNDKDEKKEDGKQAENDSSNDDKTKKSEGDGDKEEKKEDSEKEAKKSSKKRNRKHSGDDSFDEGSVSESESESESGQAEEEKEEAEEALKEKEKPKEEEWEKPKDAAGLECKPRPLHKTCSLFMRNIAPNISRAEIISLCKRYPGFMRVALSEPQPERRFFRRGWVTFDRSVNIKEICWNLQNIRLRECELSPGVNRDLTRRVRNINGITQHKQIVRNDIKLAAKLIHTLDDRTQLWASEPGTPPLPTSLPSQNPILKNITDYLIEEVSAEEEELLGSSGGAPPEEPPKEGNPAEINVERDEKLIKVLDKLLLYLRIVHSLDYYNTCEYPNEDEMPNRCGIIHVRGPMPPNRISHGEVLEWQKTFEEKLTPLLSVRESLSEEEAQKMGRKDPEQEVEKFVTSNTQELGKDKWLCPLSGKKFKGPEFVRKHIFNKHAEKIEEVKKEVAFFNNFLTDAKRPALPEIKPAQPPGPAQILPPGLTPGLPYPHQTPQGLMPYGQPRPPILGYGAGAVRPAVPTGGPPYPHAPYGAGRGNYDAFRGQGGYPGKPRNRMVRGDPRAIVEYRDLDAPDDVDFF
B4: NPM3 (protein, UniProt O75607 2-178, looked up)
Nucleoplasmin-3: AAGTAAALAFLSQESRTRAGGVGGLRVPAPVTMDSFFFGCELSGHTRSFTFKVEEEDDAEHVLALTMLCLTEGAKDECNVVEVVARNHDHQEIAVPVANLKLSCQPMLSLDDFQLQPPVTFRLKSGSGPVRITGRHQIVTMSNDVSEEESEEEEEDSDEEEVELCPILPAKKQGGRP
B5: THYN1 (protein, UniProt Q9P016 1-225, looked up)
Thymocyte nuclear protein 1: MSRPRKRLAGTSGSDKGLSGKRTKTENSGEALAKVEDSNPQKTSATKNCLKNLSSHWLMKSEPESRLEKGVDVKFSIEDLKAQPKQTTCWDGVRNYQARNFLRAMKLGEEAFFYHSNCKEPGIAGLMKIVKEAYPDHTQFEKNNPHYDPSSKEDNPKWSMVDVQFVRMMKRFIPLAELKSYHQAHKATGGPLKNMVLFTRQRLSIQPLTQEEFDFVLSLEEKEPS

How the values were obtained:
3×MBT domain of L3MBTL1 = experiment: Triple SILAC pull-down, 3xMBT/3xMBTD355N ratio (cytoplasmic, nuclear and chromatin fractions of 293T cells); format: binding, human; conditions: SILAC ratio 3xMBT vs 3xMBTD355N pull-down, 293T cells, all values in log base 2; for 3xMBT/D355N UNC Heavy: experiment with UNC0638 in heavy SILAC media; for 3xMBT/D355N UNC Light: experiment with UNC0638 in light SILAC media;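 for all read-outs here: proteins quantified with MaxQuant, requiring at least two unique peptides and quantification in both label directions, normalized to the mean of proteins from a digested loading control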
G9a and GLP = biological target: T1, G9a and GLP; experiment: Triple SILAC pull-down after UNC0638 treatment of 293T cells, DMSO/UNC0638 ratio of protein captured by 3×MBT; format: cell-based; set-up: cells were treated for 24 hours with UNC0638 at 2.5 μM or DMSO vehicle control; endogenous in cells; host or cells: HEK 293T; conditions: all values in log base 2; for Relative to UNC0638 UNC Heavy / Relative to UNC0638 UNC Light: SILAC ratio DMSO relative to UNC0638, pull-down with 3xMBT; for Relative to UNC0638 UNC Heavy: UNC0638 in heavy SILAC media; for Relative to UNC0638 UNC Light: UNC0638 in light SILAC media; for Relative to UNC0638 Average: average of UNC Light and UNC Heavy experiments;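 for all read-outs here: mass spectrometry (Q-Exactive) SILAC quantitation, DMSO/UNC0638 ratio computed after subtracting 3×MBTD355N mutant pull-down background, only proteins with at least twofold 3×MBT over mutant signal considered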

Molecule | 3xMBT/D355N UNC Heavy (3×MBT domain of L3MBTL1) | 3xMBT/D355N UNC Light (3×MBT domain of L3MBTL1) | Relative to UNC0638 UNC Heavy (G9a and GLP) | Relative to UNC0638 UNC Light (G9a and GLP) | Relative to UNC0638 Average (G9a and GLP)
B1 | 2.44 log base 2 | 2.49 log base 2 | 0.05 log base 2 | 0.12 log base 2 | 0.09 log base 2
B2 | 2.16 log base 2 | 1.62 log base 2 | 0.16 log base 2 | −0.02 log base 2 | 0.07 log base 2
B3 | 2.15 log base 2 | 2.41 log base 2 | 0.02 log base 2 | 0.15 log base 2 | 0.08 log base 2
B4 | 2.70 log base 2 | 2.15 log base 2 | 0.13 log base 2 | 0.03 log base 2 | 0.08 log base 2
B5 | 2.42 log base 2 | 2.85 log base 2 | −0.01 log base 2 | 0.18 log base 2 | 0.09 log base 2
